Results on one substance are retold here after paper PMC10570326.

The target of the test is OmpK36 (UniProt Q48473). Nature of the test: crystal structure; laser-shaped cylindrical crystal, S-SAD at a wavelength of 4.13 Å, resolution limited to 2.7 Å.

With “OmpK36 (from UniProt Q48473 22-363) (natural protein)”, the stoichiometry N amounted to 3.
